Measurements: patent US20240043489A1, “Cytokine Prodrugs Comprising a Cleavable Linker” (Trutino Biosciences Inc., priority 2020, published 2024)
Substitutions are numbered along the chain they refer to. Names may count otherwise. “And” between values parts separate entries of the source, which are not always exact repeats. Equal values may be shown once. “Also recorded” adds a separate entry of the source. Read-outs that look alike come from different tables or passages of the source. Each block holds one molecule with its values, some of them ahead of it.

Key:
fibronectin = fibronectin (Homo sapiens, UniProt P02751); details: Note 1, cited from earlier work
heparin = test: IL-2 fusion protein plate binding assay to Heparin-BSA conjugate
Protocol: 96-well plates were coated with 25 ug/mL of Heparin-BSA conjugate (provided by Dr. Mueller, Boerhinger Ingelheim) or control BSA for 18-22 h at room temperature on shaker (350 rpm). After washing, wells are blocked with PBS-0.05% Tween 20/1% BSA for 90 min, then fusion proteins are titrated in 1% BSA/PBS-0.05% Tween 20 pH 7.5 and/or pH 6 and added for 2 hr at room temperature with shaking. After washing, an anti-mouse IL-2 biotin-labelled detection antibody (JES6-5H4, ThermoFisher) is added and binding is detected using Ultra Strepavidin HIRP (ThermoFisher). The plate was developed by adding the chromogenic tetramethylbenzidine substrate (Ultra TMB, ThermoFisher). The reaction is stopped by addition of 0.5M H2SO4 and the absorbance is read at 450-650 nm.

HEK-Blue™ IL-2 cells = test: HEK-Blue IL2 reporter assay (SEAP, OD630); assay type: cell-based; details: Table 5C
Protocol: Recombinant MMP9 and/or MMP2 (R&D Systems) was first activated with p-aminophenylmercuric acetate and this activated protease or equivalent amount of activating solution without the protease was used to digest or mock digest the fusion protein for 1 hr, 2 hr, 4 hr and overnight (18-22 hr) at 37 C. Cleavage assays are set up in TCNB buffer: 50 mM Tris, 10 mM CaCl2), 150 mM NaCl, 0.05% Brij-35 (w/v), pH 7.5. Digested protein was aliquoted and stored at −80° C. prior to testing. Aliquots of digests were subsequently analyzed by SDS-PAGE followed by Western blotting to evaluate the extent of cleavage. Digests were also assessed in functional assays such as CTLL-2 proliferation and HEK-Blue Interleukin reporter assays. As shown in FIGS. 2A-E, essentially complete cleavage by MMP9 protease of the fusion proteins with functional site is seen after overnight incubation. In contrast, proteins containing a scrambled MMP cleavage site are not cut (FIG. 2E). HEK-Blue™ IL-2 cells are specifically designed to monitor the activation of the JAK-STAT pathway induced by IL-2. Indeed, stimulation with human or murine IL-2 triggers the JAK/STAT5 pathway and induces secreted embryonic alkaline phosphatase (SEAP) production. SEAP can be readily monitored when using QUANTI-Blue™, a SEAP detection medium. These cells respond to human and murine IL-2. For the HEK Blue assay, untreated and digested samples are titrated and added to 50 000 HEK Blue cells per well in 200 ul medium in a 96-well plate and incubated at 37C in 5% CO2 for 20-24 hr. The following day, levels of SEAP are measured by adding 20 uL of cell supernatant to QuantiBlue reagent, followed by 1-3 h incubation at 37C and reading absorbance at 630 nm. FIGS. 3C-J, 3Q-Y and Table 5B-5C show results obtained from IL2 fusion proteins tested in HEK Blue IL2 assay.

[1] = Full-length drug levels in serum by ELISA; assay type: in vivo, mice; details: 24 hrs after dosing; for drug levels in serum relative to Construct B: 10 mg/kg cohort
Protocol: (§1) We developed an ELISA assay to detect and quantify fusion proteins comprising IL-2 and IL-2Rα moieties. Wells of a 96-well plate are coated overnight with 100 uL of a rat anti-mouse IL-2 monoclonal antibody (JES6-1A12; ThermoFisher) at […] in PBS. After washing, wells are blocked with TBS/0.05% Tween 20/1% BSA, then fusion proteins and/or unknown biological samples are added for 1 hr at room temperature. After washing, an anti-mouse IL-2Rα biotin-labelled detection antibody (BAF2438, R&D systems) is added and binding is detected using Ultra Strepavidin HRP (ThermoFisher). The ELISA plate was developed by adding the chromogenic tetramethylbenzidine substrate (Ultra TMB, ThermoFisher). The reaction is stopped by addition of 0.5M H2SO4 and the absorbance is read at 450-650 nm.
Additional serum samples collected at Day 17 (Construct B 20 mg/kg) and Day 21 (Construct Y 20 mg/kg), 4 days and 8 days respectively after the last IV injection, were assayed for full-length IL-2 fusion drug.

[2] = Drug and IL-2 levels in B16F10 tumor lysates by ELISA; assay type: in vivo, mice; details: for IL-2 levels in treated tumors compared to Construct B treated tumors: free IL-2 calculated by subtraction, 24 h after last dose
Protocol: as §1
We developed a second ELISA assay to detect and quantify mouse IL-2 and/or fusion proteins comprising an IL-2 moiety. Wells of a 96-well plate are coated overnight with 100 uL of a rat anti-mouse IL-2 monoclonal antibody (JES6-1A12; ThermoFisher) at […] in PBS. After washing, wells are blocked with TBS/0.05% Tween 20/1% BSA, then fusion proteins and/or unknown biological samples are added for 1 hr at room temperature. After washing, an anti-mouse IL-2 biotin-labelled detection antibody (JES6-5H4, ThermoFisher) is added and binding is detected using Ultra Strepavidin HRP (ThermoFisher). The ELISA plate was developed by adding the chromogenic tetramethylbenzidine substrate (Ultra TMB, ThermoFisher). The reaction is stopped by addition of 0.5M H2SO4 and the absorbance is read at 450-650 nm. This assay is able to simultaneously detect both free mouse IL-2 as well as mouse IL-2 in the context of pro-drug fusion proteins.
We quantified levels of full-length IL2-IL2Ra fusion proteins and IL-2 in tumor samples collected during pre-clinical efficacy studies comparing Construct B and retention linker IL-2 fusion drugs (see example 17).
Tumors (n=3 per group) were collected 24 h after the last dose injection, flash frozen and stored at −80C until further processing. Tumor lysates were generated using tissue extraction reagent (ThermoFisher) supplemented with protease and phosphatase inhibitors and standard techniques and protein concentrations were determined using the BCA assay (Pierce).
Lysates were tested with in-house ELISAs to measure full-length IL-2 fusion proteins (IL-2 capture/IL-2Rα detection) and IL-2 fusion proteins+free IL-2 (IL-2 capture/IL-2 detection). Free IL-2 levels in tumor were calculated by subtracting drug levels from the drug+IL-2 data set. Results were normalized to 1 mg of tumor lysate and mean values are shown in FIG. 15C-H. Levels of Construct CC (20 mg/kg dose) in tumor are roughly 3-fold higher compared to Construct B levels, despite Construct B being dosed at 40 mg/kg (FIG. C). […] Likewise, IL-2 levels in Construct CC, Construct GG and Construct II treated tumors are elevated compared to Construct B treated tumors (FIG. 15E/H). This implies that next generation retention linker technology is able to retain in TME both full-length drug and released IL-2 post-cleavage.

B16F10 melanoma = test: In vivo efficacy of retention linker IL-2 drugs in B16F10 syngeneic model (Example 17); set-up: species or system mice; details: for TGI (%) D 15: 10 mg/kg IV Q3D, 5 doses; for TGI (%) D 20: 10 mg/kg, 7 days following the fifth dose
Protocol: (§2) In a first efficacy study, C57BL/6 mice were subcutaneously inoculated with B16F10 melanoma cells and when the average tumor volume reached on average 70-90 mm^3, animals were randomized into 5 groups based on tumor volumes (n=6 mice per treatment group). Mice were dosed intravenously every 3 days (Q3D) for a total of 5 doses according to following design:
as §2, with “second” for “first”, “study in the same model,” for “study,”
On Day 20, mice received an additional dose of drug, animals were sacrificed 24 hrs later and tissues and blood (processed to serum) were collected and stored at −80C for further testing. […] This is most likely due to the higher levels of both circulating drugs in serum and resident drug in TME, which can exert prolonged anti-tumor activity even after an extended dosing holiday.

collagen = test: IL-2 fusion protein collagen-agarose pulldown (immunoblot quantitation); assay type: binding; details: for Bound: blot quantitation, collagen-agarose bound fraction; for Normalized: bound fraction relative to Construct B (fold); for Bound (% input): fraction bound to collagen-agarose; for binding to collagen-agarose beads vs control agarose beads: pulldown 18-22 h at 4C
Protocol: To test binding to collagen, a pulldown assay using agarose cross-linked to collagen (Sigma) was performed. IL-2 fusion proteins were incubated with collagen-agarose or control agarose beads for 18-22 h at 4C with gentle rotation in 1% BSA/PBS-0.05% Tween 20. After washing, proteins bound to the beads were eluted by resuspending beads in SDS sample buffer (Life Technologies). Bound proteins were then separated by SDS-PAGE on 4-12% BisTris gradient gel followed by immunoblotting with goat anti-mouse IL-2 polyclonal antibody (AF-402-NA; R&D systems). Donkey Anti-goat RP-conjugated antibody was used for detection (Jackson Immuno Research, West Grove, PA) and the blot was developed using the SuperSignal West Femto Maximum sensitivity detection reagent (ThermoFisher) following the manufacturer's recommendations.

[3] = pH-sensitive sequences derived from thrombospondin
[4] = cleaved with MMP9, read-out: +MMP EC50

fibronectin, sequence (P02751 32-2477, species assumed): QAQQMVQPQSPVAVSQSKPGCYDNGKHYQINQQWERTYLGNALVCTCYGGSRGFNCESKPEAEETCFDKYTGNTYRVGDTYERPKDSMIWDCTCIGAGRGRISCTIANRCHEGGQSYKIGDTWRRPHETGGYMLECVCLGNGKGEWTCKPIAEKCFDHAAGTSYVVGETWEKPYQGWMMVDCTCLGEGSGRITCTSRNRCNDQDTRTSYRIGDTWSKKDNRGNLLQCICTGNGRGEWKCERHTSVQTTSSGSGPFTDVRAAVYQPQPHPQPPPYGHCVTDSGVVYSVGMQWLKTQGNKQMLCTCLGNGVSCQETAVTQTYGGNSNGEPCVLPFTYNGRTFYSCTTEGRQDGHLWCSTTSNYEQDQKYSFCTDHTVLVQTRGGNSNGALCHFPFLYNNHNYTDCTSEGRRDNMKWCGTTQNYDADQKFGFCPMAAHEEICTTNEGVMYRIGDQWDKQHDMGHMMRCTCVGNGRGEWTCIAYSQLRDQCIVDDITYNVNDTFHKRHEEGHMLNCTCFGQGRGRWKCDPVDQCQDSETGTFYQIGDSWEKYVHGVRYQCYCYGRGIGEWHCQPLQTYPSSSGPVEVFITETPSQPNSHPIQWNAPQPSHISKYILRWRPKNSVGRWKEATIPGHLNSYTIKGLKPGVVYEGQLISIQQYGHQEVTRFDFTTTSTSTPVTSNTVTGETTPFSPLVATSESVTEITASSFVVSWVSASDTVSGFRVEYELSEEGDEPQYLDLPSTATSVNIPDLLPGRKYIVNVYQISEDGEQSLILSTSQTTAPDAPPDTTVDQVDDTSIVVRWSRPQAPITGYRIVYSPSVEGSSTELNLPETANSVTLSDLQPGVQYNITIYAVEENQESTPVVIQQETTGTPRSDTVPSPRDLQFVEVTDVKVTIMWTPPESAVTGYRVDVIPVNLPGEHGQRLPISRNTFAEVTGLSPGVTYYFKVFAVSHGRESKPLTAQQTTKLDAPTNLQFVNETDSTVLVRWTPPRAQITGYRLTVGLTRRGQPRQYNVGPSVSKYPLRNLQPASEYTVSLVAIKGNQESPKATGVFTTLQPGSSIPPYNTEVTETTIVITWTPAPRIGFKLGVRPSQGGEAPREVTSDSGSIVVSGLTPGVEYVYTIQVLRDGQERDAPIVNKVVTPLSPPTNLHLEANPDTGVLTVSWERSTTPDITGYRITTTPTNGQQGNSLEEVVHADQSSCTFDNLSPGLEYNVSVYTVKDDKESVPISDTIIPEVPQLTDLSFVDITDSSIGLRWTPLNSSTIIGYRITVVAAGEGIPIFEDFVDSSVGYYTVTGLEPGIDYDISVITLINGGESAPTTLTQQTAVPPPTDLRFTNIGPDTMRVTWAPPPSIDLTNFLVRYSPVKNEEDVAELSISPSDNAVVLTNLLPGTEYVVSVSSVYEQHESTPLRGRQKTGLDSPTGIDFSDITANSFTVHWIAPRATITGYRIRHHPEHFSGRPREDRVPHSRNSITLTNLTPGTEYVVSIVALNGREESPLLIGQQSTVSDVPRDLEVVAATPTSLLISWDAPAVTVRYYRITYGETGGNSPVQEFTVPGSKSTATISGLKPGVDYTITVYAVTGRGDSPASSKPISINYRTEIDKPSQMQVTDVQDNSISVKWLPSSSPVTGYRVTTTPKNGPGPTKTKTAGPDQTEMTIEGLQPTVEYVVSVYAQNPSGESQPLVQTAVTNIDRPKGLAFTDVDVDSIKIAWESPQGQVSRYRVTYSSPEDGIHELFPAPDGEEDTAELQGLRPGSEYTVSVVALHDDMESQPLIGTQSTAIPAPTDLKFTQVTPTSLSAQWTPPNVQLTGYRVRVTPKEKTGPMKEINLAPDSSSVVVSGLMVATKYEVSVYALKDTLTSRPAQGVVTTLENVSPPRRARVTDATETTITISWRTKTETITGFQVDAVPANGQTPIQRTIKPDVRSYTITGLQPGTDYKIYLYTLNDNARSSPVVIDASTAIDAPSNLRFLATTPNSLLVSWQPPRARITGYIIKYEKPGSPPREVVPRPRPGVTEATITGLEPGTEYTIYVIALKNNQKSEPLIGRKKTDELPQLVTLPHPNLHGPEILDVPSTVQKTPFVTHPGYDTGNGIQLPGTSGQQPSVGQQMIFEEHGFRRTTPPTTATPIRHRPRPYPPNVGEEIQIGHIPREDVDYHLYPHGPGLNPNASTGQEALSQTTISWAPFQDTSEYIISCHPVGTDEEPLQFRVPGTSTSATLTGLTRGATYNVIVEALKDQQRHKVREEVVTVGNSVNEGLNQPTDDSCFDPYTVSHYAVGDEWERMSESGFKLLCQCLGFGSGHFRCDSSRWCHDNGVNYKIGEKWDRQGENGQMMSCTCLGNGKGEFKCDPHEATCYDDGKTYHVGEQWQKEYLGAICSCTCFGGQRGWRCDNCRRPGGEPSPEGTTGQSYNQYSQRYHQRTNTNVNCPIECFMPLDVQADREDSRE

Molecule: 680 (QFGGHNSVDFEEDT) [Construct 680]
affinity (Binds to Fibronectin) (fibronectin; FAB D3 fragments): non-binding control

Molecule: 656 (GGWSHWSPWSS) [Construct 656]
affinity (Binds to Fibronectin) (fibronectin; [3]): derived from thrombospondin (medium affinity)

Molecule: 654 (KRFKQDGGWSHWSPWSS) [Construct 654]
affinity (Binds to Fibronectin) (fibronectin; [3]): derived from thrombospondin (low affinity)

Molecule: 655 (KRFKQDGGWSHWSP) [Construct 655]
affinity (Binds to Fibronectin) (fibronectin; [3]): derived from thrombospondin (medium affinity)

EC50 (heparin; acidic pH): 10 nM
B1: Construct CC: SEQ ID NO 813: m IL2-2x(GHHPH)-MMPcs1-2x(G4S)-mIL2Ra(1-215)-mu IgG1 Fc (protein)
chain: APTSSSTSSSTAEAQQQQQQQQQQQQHLEQLLMDLQELLSRMENYRNLKLPRMLTFKFYLPKQATELKDLQCLEDELGPLRHVLDLTQSKSFQLEDAENFISNIRVTVVKLKGSDNTFECQFDDESATVVDFLRRWIAFCQSIISTSPQGHHPHGHHPHGPLGVRGGGGGSGGGGSELCLYDPPEVPNATFKALSYKNGTILNCECKRGFRRLKELVYMRCLGNSWSSNCQCTSNSHDKSRKQVTAQLEHQKEQQTTTDMQKPTQSMHQENLTGHCREPPPWKHEDSKRIYHFVEGQSVHYECIPGYKALQRGPAISICKMKCGKTGWTQPQLTCVDEREHHRFLASEESQGSRNSSPESETSCPITTTDFPQPTETTAMTETFVLTMEYKGCKPCICTVPEVSSVFIFPPKPKDVLTITLTPKVTCVVVDISKDDPEVQFSWFVDDVEVHTAQTQPREEQFNSTFRSVSELPIMHQDWLNGKEFKCRVNSAAFPAPIEKTISKTKGRPKAPQVYTIPPPKEQMAKDKVSLTCMITDFFPEDITVEWQWNGQPAENYKNTQPIMDTDGSYFVYSKLNVQKSNWEAGNTFTCSVLHEGLHNHHTEKSLSHSPGK
heparin binding (qualitative) (heparin; pH 6 vs pH 7.5, plate assay): bind heparin in dose-dependent manner and with higher affinity than Construct B; also recorded: preferentially binds heparin at acidic pH
EC50 (HEK-Blue™ IL-2 cells; [4]): 0.013 nM
EC50 (HEK-Blue™ IL-2 cells; uncleaved, read-out: −MMP EC50): 0.66 nM
circulating drug levels compared with Construct B (40 mg/kg) ([1]; Construct CC 20 mg/kg): roughly similar
drug levels in tumor relative to Construct B (40 mg/kg) ([2]; Construct CC 20 mg/kg, tumors 24 h after last dose): roughly 3 fold
IL-2 levels in treated tumors compared to Construct B treated tumors [2]: elevated

B2: Construct GG: SEQ ID NO 817: m IL2-SGG-KLWVLPK-MMPcs1-2x(G4S)-mIL2Ra(1-215)-mu IgG1 Fc (protein)
chain: B1 chain with G150S, H151G, H152G, P153K, H154L, G155W, H156V, H157L, H159K
TGI (%) D 15 (B16F10 melanoma): 57% and 57.18%
TGI (%) D 20 (B16F10 melanoma): 64.70%
EC50 (HEK-Blue™ IL-2 cells; [4]): 0.0072 nM
EC50 (HEK-Blue™ IL-2 cells; uncleaved, read-out: −MMP EC50): 0.14 nM
drug levels in serum relative to Construct B [1]: roughly 5 fold
Bound (collagen): 5191
Normalized (collagen): 2.5
Bound (% input) (collagen): 0.7%
binding to collagen-agarose beads vs control agarose beads (collagen): specifically bound by collagen-agarose beads
drug level in tumor, comparison in 10 mg/kg dosing cohort ([2]; 10 mg/kg, tumors 24 h after last dose): highest levels
IL-2 levels in treated tumors compared to Construct B treated tumors [2]: elevated

B3: Construct II: SEQ ID NO 819: m IL2-LHERHLNNN-MMPcs1-2x(G4S)-mIL2Ra(1-215)-mu IgG1 Fc (protein)
chain: B1 chain with G150S, H151L, P153E, H154R, G155H, H156L, H157N, P158N, H159N
TGI (%) D 15 (B16F10 melanoma): 57% and 57.68%
TGI (%) D 20 (B16F10 melanoma): 68.52%
EC50 (HEK-Blue™ IL-2 cells; [4]): 0.009 nM
EC50 (HEK-Blue™ IL-2 cells; uncleaved, read-out: −MMP EC50): 0.489 nM
drug levels in serum relative to Construct B [1]: ~3 fold
Bound (collagen): 2277
Normalized (collagen): 1.4
Bound (% input) (collagen): 0.4%
binding to collagen-agarose beads vs control agarose beads (collagen): specifically bound by collagen-agarose beads
IL-2 levels in treated tumors compared to Construct B treated tumors [2]: elevated
